Laboratory results published in patent US20260008856A1, “METHODS OF TREATING DISEASE USING ANTI-IL1RAP ANTIBODIES AND ANTIBODY DRUG CONJUGATES” (Bluefin Biomedicine, Inc., priority 2022, published 2026).

Tests used:
[1] = system: Karpas 299; assay: Flow cytometry binding to endogenous cell line Karpas 299; format: cell-based, human; set-up: key to binding to Karpas 299 by flow cytometry: (−): No binding; (+): Weak binding; (++): Moderate binding; (+++): Strong binding; details: primary antibody 1 ug/ml
Experimental: (§1) Staining for flow cytometry was performed in 1× cold PBS with 0.5% BSA. Primary antibodies (1 ug/ml) were incubated with live cells on ice for 30 minutes, after a brief wash, cells were incubated with Alexa Fluro® 488-conjugated anti-human IgG secondary antibody @1:1000 (709-546-149, Jackson ImmunoResearch). Acquisition of the data was performed on a MACSQuant® Flow Cytometers (Miltenyi Biotec) and analyzed with FlowJo software.
(§2) Over 1,000 hits were identified that bind strongly to CHO-human IL1RAP, but not parental CHO cells. 68 clones were selected for molecular cloning. Based on unique CDR3 sequences from the heavy chain variable domain, 35 antibodies from 13 families were confirmed by binding in IL1RAP positive cell lines EOL1 and Karpas 299 (see Table 8) by flow cytometry (MACSQuant® www.miltenybiotec.com).

[2] = system: H69; assay: Flow cytometry binding to endogenous cell line H69; format: cell-based; set-up: key: (−): No binding; (+): Weak binding; (++): Moderate binding; (+++): Strong binding; details: primary antibody 1 ug/ml
Experimental: as §1

[3] = system: EOL-1; assay: Flow cytometry binding to endogenous cell line EOL-1; format: cell-based, human; set-up: key to binding to EOL-1 by flow cytometry: (−): No binding; (+): Weak binding; (++): Moderate binding; (+++): Strong binding; details: primary antibody 1 ug/ml
Experimental: as §1, §2

[4] = system: MOLT3; assay: Flow cytometry binding to endogenous cell line MOLT3; format: cell-based; set-up: key: (−): No binding; (+): Weak binding; (++): Moderate binding; (+++): Strong binding; details: primary antibody 1 ug/ml
Experimental: as §1

[5] = target: T1, recombinant human IL1RAP (Homo sapiens, UniProt Q9NPH3); assay: Binding competition binning on Octet; details: Protein A biosensors
T1 construct: MBP-IL1RAP(S21-T367)-; 8xHis (C); made in house; host or cells: CHO (ExpiCHO transient expression)
Experimental: Binding Competition binning: Binding competition among different antibodies was determined using a real-time, interferometry assay on an Octet Red™ instrument with Protein A-conjugated biosensors. To assess whether two antibodies competed for binding to a recombinant IL1RAP protein, the assay was performed as follows. Protein A biosensors were first submerged into wells containing 10 ug/mL of individual monoclonal antibodies for 5 minutes. Following the capture step, the biosensors were dipped briefly (15 seconds) into buffer and then any unoccupied sites on the biosensor were saturated by submerging them for 5 minutes into wells containing 100 ug/mL of an irrelevant monoclonal antibody. The Octet™ biosensors were then dipped briefly (15 seconds) in buffer before immersion for 1 minute into wells containing recombinant IL1RAP. The biosensors were dipped briefly (15 seconds) in buffer before immersion for 1 minute into wells containing a second recombinant antibody.
For the control case where the second antibody was the same as the first, there was no increase in signal, because there was no additional binding to the recombinant target.
For the control case where buffer was used instead of the first antibody, no recombinant target bound the non-quenching antibody on the biosensor and no second antibody bound the biosensor.
Selected antibodies were evaluated in pairs for their ability to simultaneously bind recombinant human IL1RAP. The analysis was performed by Octet™ loaded with Protein A Biosensors. A total of five different bins were determined as follows.

[6] = system: IL-33 signaling; assay: IL-33 signaling reporter cell assay (HEK-Blue IL-33 cells); format: cell-based; details: antibody 1-10 μg/ml, IL-33 0.5 ng/ml
Experimental: FIGS. 7A and 7B show blockage of IL-33 signaling by anti-IL1RAP antibodies. HEK-Blue IL-33 cells (Invivogen, CA) were harvested and plated in technical duplicates at a density of 50,000 cells per well in a 96-well plate. Antibodies, or a corresponding human IgG1 control antibody, was added to the wells in a serial dilution starting at 10 μg/ml (FIG. 7A), or a concentration of 1 and 10 μg/ml (FIG. 7B). After incubating cells with antibodies for 30 minutes, IL-33 was added to a final concentration of 0.5 ng/ml, and the plate was incubated overnight. 24 hours later, substrate was added to the supernatants, and samples were analyzed for absorbance at 620 nm. CBIgG1 (anti-hen egg lysozyme antibody, CrownBio™) was included as a negative control.
(§3) HEK-Blue IL-33 cells (Invivogen, CA) were harvested and plated in technical duplicates at a density of 50,000 cells per well in a 96-well plate. antibodies, or a corresponding human IgG1 control antibody was added to the wells in a concentration range of […]. After incubating cells with antibodies for 30 minutes, IL-33 was added to a final concentration of 0.5 ng/ml, and the plate was incubated overnight. To examine whether any of the antibodies were able to induce ST2 activation in the absence of IL-33, samples were incubated with 10 μg/mL antibody without addition of the ligand. The following day, substrate was added to the supernatants, and samples were analyzed for absorbance at 620 nm.

[7] = system: IL-1β signaling; assay: IL-1 signaling reporter cell assay (HEK-Blue IL-1β cells), IL-1β; format: cell-based; details: HEK-Blue IL-1β cells, antibody 1-10 pg/ml, IL-1β 0.5 ng/ml
Experimental: as §3, with “IL-1β” for “IL-33”, “plate. IL1RAP” for “plate.”, “IL-1R” for “ST2”, “IL-1β,” for “IL-33,”

Row | competition for binding, bin (3) [5] | competition for binding, bin (4) [5] | competition for binding, bin (2) [5] | Molecule | binding to Karpas 299 by flow cytometry [1] | binding to H69 by flow cytometry [2] | binding to EOL-1 by flow cytometry [3] | binding to MOLT3 by flow cytometry [4] | inhibition of IL-33 signaling [6] | inhibition of IL1R1 / IL-1 signaling [7]
1 |  |  |  | 10C8_15A4: human anti-IL1RAP antibody, VH SEQ ID NO: 106, VL SEQ ID NO: 108 (antibody, V domains shown) VH: EEQLLESGADLAQPGGSLRLSCAASGFTFSSYAMSWVRQAPGKGLEWVSTIRISGDTTYYADSVKGRFTISRDNSKNTLFLQMNSLRAEDTAVYYCVRDYYNGMDVWGHGTTVTVSS VL: EIVLTQSPATLSLSPGERATLSCRASQRVSSYLAWYQQKPGQAPRLLIYDASNRATGIPARFSGSGSGTDFTLTISSLEPEDFAVYYCQQRSYWPPAFGQGTKLEIK | (+++) | (−) | (+++) |  |  | 
2 |  |  |  | 26C5_15B4: human anti-IL1RAP antibody, VH SEQ ID NO: 96, VL SEQ ID NO: 98 (antibody, V domains shown) VH: EAQLLESGGGLVQPGGSLRLSCAASGFTFSSYAMSWVRQAPGKGLEWVSTISGSGGSTHYADSVKGRFTISRDNSKNTLYLQMNSLRAEDTAVYYCVRDYYYGMDVWGQGTTVTVSS VL: EIVLTQSPATLSLSPGERATLSCRASQSVSSYLAWYQQKPGQAPRLLIYDASNRATGIPARFSGSGSGTDFTLTISSLEPEDFAVYYCQQRSYWPPTFGQGTKLEIK | (+++) | (−) | (+++) |  |  | 
3 |  |  |  | 16H2_17D1: human anti-IL1RAP antibody, VH SEQ ID NO: 83, VL SEQ ID NO: 87 (antibody, V domains shown) VH: EVQLLESGADLVQPGGSLRLSCAASGFTFSSYAMSWVRQAPGKGLEWVSTIRISGGTTYYADSVKGRFTISRDNSKNTLYLQMNSLRAEDTAVYYCVRDYYNGMDVWGQGTTVTVSS VL: EIVLTQSPATLSLSPGERATLSCRASQRVSSYLAWYQQKPGQAPRLLIYDASNRATGIPARFSGSGSGTDFTLTISSLEPEDFAVYYCQQRSYWPPAFGQGTKLEIK | (+++) | (−) | (+++) |  |  | 
4 |  |  |  | 36A12_21C1: human anti-IL1RAP antibody, VH SEQ ID NO: 144, VL SEQ ID NO: 147 (antibody, V domains shown) VH: EVQLVESGGGLVQPGGSLRLSCAASGFTLSFYWMTWVRQAPGKGLEWVANIKQDGNEKNYVDSVKGRFTISKDNAKKSVFLQMNSLRAEDTAVYYCAREGYFGSGYFDYWGQGTLVTVSS VL: DIQMTQSPSTLSASVGDRVTITCRASQSINSWLAWYQQKPGKAPKLLIYKASTLESGVPSRFSGSGSGTEFTLTISSLQPDDFAPYYCQHYNSYPHTFGQGTKVEIK | (+++) |  | (+++) | (+) |  | 
5 |  |  |  | 33H2_21B1: human anti-IL1RAP antibody, VH SEQ ID NO: 140, VL SEQ ID NO: 143 (antibody, V domains shown) VH: EVQVVESGGGLVQPGGSLRLSCATSGFTFRSYWMTWVRQAPGKGLEWVANIKQDGSERHYVDSVKGRFTISRDNAKTSLYLQMSSLRAEDTAMYYCAREGYYGSGYFDYWGQGTLVTVSS VL: DIQMTQSPSTLSASVGDRVIITCRASQSISRGLAWYQQKPGKAPKLLIYKASNLESGVPSRFSGSGSGTEFTLTISSLQPDDFAAYYCQQYSYYSHTFGQGTKVEIK | (+++) |  | (+++) | (+) |  | 
6 | competed with each other | competed with each other |  | 36A10_21B6: human anti-IL1RAP antibody, VH SEQ ID NO: 48, VL SEQ ID NO: 52 (antibody, V domains shown) VH: QGQVVESGGGVVQPGRSLRLSCAASGFTFSSYTLHWVRQAPGKGLEWVAVIWYDGSNKYYVDSVKGRFTISRDNSKNTLYLQMNSLRAEDTAVYYCAREYGSGSYYNVYYGMDVWGQGTTVTLSS VL: DIVMTQSPLSLPVTPGEPASISCRSSQSLLHSNGYNYLDWYLQKPGQSPHLLIYLASNRASGVPDRFSGSGSGTDFTLKISRVEAEDVGFYYCMQTLQIPLTFGGGTKVEIK | (++) |  | (+++) | (+) | partially inhibit | potent inhibition
7 | competed with each other |  | competed with each other | 5G8_18A1: human anti-IL1RAP antibody, VH SEQ ID NO: 1, VL SEQ ID NO: 5 (antibody, V domains shown) VH: QVELQESGPGLVKPSDTLSLTCTVTGGSISTYYWSWIRQPPGKGLEWIGYIFYTGTTNYNPSLKSRVTISVDASKNQFSLKLNSVTAADTAVYYCARDGSLDYWGQGALVTVSS VL: DIQMTQSPSSLSASVGDRVTITCRASQSISNYLNWYQQKPGKAPKLLIFVASLLQSGVPSRFSGSGSGTDFTLTISSLQPEDFATYYCQQSYSTPFTFGPGTKLEIK |  | (−) | (+++) |  |  | potent inhibition
8 |  |  | competed with each other | 16H2_17D2: human anti-IL1RAP antibody, VH SEQ ID NO: 25, VL SEQ ID NO: 29 (antibody, V domains shown) VH: QVQLVESGGGVVQPGGSLRLSCAASGFTFSSHGMHWVRQAPGKGLEWVAVIWYDGSNKFYTDSVQGRFTISRDNSKNTLNLQMNSLRAEDTAVYYCAREGLRAGYYFDFWGQGTLVTVSS VL: DIQMTQSPSSLSASVGDRVTITCRASQRISFYSNWYQQKPGKAPKLLIYAASSLQSGVPSRFSGSGSGTDFTLTISSLQPEDFATYFCQQSHSTPLTFGGGTKLEIK |  |  | (+++) |  |  | potent inhibition
